Patent US20220267463A1 (Hoffmann-La Roche, published 2022)

How the values were obtained:
[1] = target: T1, carcinoembryonic antigen (CEA) on MKN-45 cells (human, UniProt P06731 35-685); test: flow cytometry on MKN45 cells, hemibody mixed 1:1 with human ISO control, detection with anti-human IgG(H+L) (title: A488; legend box: FITC)
T1 construct: whole, on cells; also called CEACAM5; Carcinoembryonic antigen-related cell adhesion molecule 5
T1 sequence (looked up): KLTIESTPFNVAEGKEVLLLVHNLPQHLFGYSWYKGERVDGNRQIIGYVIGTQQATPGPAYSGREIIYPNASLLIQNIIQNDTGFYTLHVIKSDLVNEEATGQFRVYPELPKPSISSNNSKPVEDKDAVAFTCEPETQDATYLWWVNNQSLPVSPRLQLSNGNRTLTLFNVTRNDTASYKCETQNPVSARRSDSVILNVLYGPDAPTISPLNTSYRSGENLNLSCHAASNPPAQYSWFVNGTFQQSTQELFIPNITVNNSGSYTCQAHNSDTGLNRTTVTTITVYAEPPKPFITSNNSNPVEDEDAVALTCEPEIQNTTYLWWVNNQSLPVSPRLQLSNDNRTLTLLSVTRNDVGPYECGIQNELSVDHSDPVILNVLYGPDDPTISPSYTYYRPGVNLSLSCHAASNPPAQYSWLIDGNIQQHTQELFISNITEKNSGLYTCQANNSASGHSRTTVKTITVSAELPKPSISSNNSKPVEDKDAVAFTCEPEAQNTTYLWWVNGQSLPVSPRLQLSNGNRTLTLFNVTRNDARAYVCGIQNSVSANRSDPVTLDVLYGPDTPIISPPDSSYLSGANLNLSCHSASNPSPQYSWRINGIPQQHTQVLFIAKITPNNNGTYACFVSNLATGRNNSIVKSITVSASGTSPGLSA
Method: To assess the functionality of the split antibodies or hemibodies, MKN-45 cells were detached from the culture vessel using accutase at 37° C. for 10 minutes. Subsequently, the cells were washed twice in PBS, and seeded into 96 well v-bottom plates to a final density of 4×10⁶ cells/well.
Subsequently, the cells were incubated for 1 h on ice and washed twice in PBS. The cell pellet was resuspended and 40 μl/well of detection reagent was added, either <human IgG(H+L)>FITC, (10 μg/ml) or Pb_Dotam_FITC 1:100=>(10 μg/ml) in PBS/5% FCS. After 60 min incubation on ice, the cells were washed twice in PBS and resuspended in 200 μl PBS/5% FCS for measurement of FITC fluorescence using a FACS canto.

[2] = target: T1, carcinoembryonic antigen (CEA) on …; test: flow cytometry on MKN-45 cells, detection with anti-huIgG(H+L)-Alexa488
Method: MKN-45 cells were detached from the culture bottle using Trypsin and were counted using a Casy cell counter. After pelleting at 4° C., 300 g the cells were resuspended in FACS Buffer (2.5% FCS in PBS), adjusted to 2.0E+06 cells/mL dispensed to 96-well PP V-bottom-Platte (25 μL/well=5.0E+04 Zellen/well).
The CEA specific SPLIT antibodies (P1AF0712 or P1AF0713 respectively) were adjusted to 40 μg/mL in FACS buffer, resulting in a final concentration of 10 μg/mL. […] The cells were then washed twice in FACS buffer and resuspended in 70 μl/well FACS buffer for measurement using a FACS Canto (BD, Pharmingen). […] Both antibodies were added to the cells either separated followed by buffer or combined and incubated at 4° C. for 1 h. The cells were then washed twice in FACS buffer. After washing, the cells were resuspended in 50 μL FACS-buffer containing secondary antibody (<huIgG(H+L)>-Alexa488, c=10 μg/mL) and incubated 1 h at 4° C.

B1: PRIT Split Antibody with DOTAM-VH-P1AD8749 (antibody, human IgG1, kappa, L234A L235A)
heavy 1: QVQLVQSGAEVKKPGASVKVSCKASGYTFTEFGMNWVRQAPGQGLEWMGWINTKTGEATYVEEFKGRVTFTTDTSTSTAYMELRSLRSDDTAVYYCARWDFAYYVEAMDYWGQGTTVTVSSASTKGPSVFPLAPSSKSTSGGTAALGCLVKDYFPEPVTVSWNSGALTSGVHTFPAVLQSSGLYSLSSVVTVPSSSLGTQTYICNVNHKPSNTKVDKKVEPKSCDKTHTCPPCPAPEAAGGPSVFLFPPKPKDTLMISRTPEVTCVVVDVSHEDPEVKFNWYVDGVEVHNAKTKPREEQYNSTYRVVSVLTVLHQDWLNGKEYKCKVSNKALGAPIEKTISKAKGQPREPQVCTLPPSRDELTKNQVSLSCAVKGFYPSDIAVEWESNGQPENNYKTTPPVLDSDGSFFLVSKLTVDKSRWQQGNVFSCSVMHEALHNHYTQKSLSLSPG
heavy 2: not shown
light: DIQMTQSPSSLSASVGDRVTITCKASAAVGTYVAWYQQKPGKAPKLLIYSASYRKRGVPSRFSGSGSGTDFTLTISSLQPEDFATYYCHQYYTYPLFTFGQGTKLEIKRTVAAPSVFIFPPSDEQLKSGTASVVCLLNNFYPREAKVQWKVDNALQSGNSQESVTEQDSKDSTYSLSSTLTLSKADYEKHKVYACEVTHQGLSSPVTKSFNRGEC
notes: Full length anti-CEA (CH1A1A) human IgG1 with knob-into-hole and P329G LALA; one heavy chain carries the DOTAM VH at its C-terminus; No DOTAM VL; Bivalent for CEA; also called CEA-split-DOTAM-VH; P1_B
- EC50 (read off the curve) [1]: ~1 µg/mL

B2: P1AF0712 (antibody, human IgG1, kappa, L234A L235A)
heavy 1: not shown
heavy 2: QVQLVQSGAEVKKPGASVKVSCKASGYTFTEFGMNWVRQAPGQGLEWMGWINTKTGEATYVEEFKGRVTFTTDTSTSTAYMELRSLRSDDTAVYYCARWDFAYYVEAMDYWGQGTTVTVSSASTKGPSVFPLAPSSKSTSGGTAALGCLVKDYFPEPVTVSWNSGALTSGVHTFPAVLQSSGLYSLSSVVTVPSSSLGTQTYICNVNHKPSNTKVDKKVEPKSCDKTHTCPPCPAPEAAGGPSVFLFPPKPKDTLMISRTPEVTCVVVDVSHEDPEVKFNWYVDGVEVHNAKTKPREEQYNSTYRVVSVLTVLHQDWLNGKEYKCKVSNKALGAPIEKTISKAKGQPREPQVCTLPPSRDELTKNQVSLSCAVKGFYPSDIAVEWESNGQPENNYKTTPPVLDSDGSFFLVSKLTVDKSRWQQGNVFSCSVMHEALHNHYTQKSLSLSPGGGGGSGGGGSGGGGSGGGGSQAVVIQESALTTPPGETVTLTCGSSTGAVTASNYANWVQEKPDHLFTGLIGGHNNRPPGVPARFSGSLIGDKAALTIAGTQTEDEAIYFCALWYSDHWVIGGGTKLTVL
light: B1 light
notes: also called CEA specific SPLIT antibody (DOTA-VL); P6_A
- EC50 [2]: 2.7 µg/mL

B3: P1AF0713 (antibody, human IgG1, kappa, L234A L235A)
heavy 1: B1 heavy 1
heavy 2: not shown
light: B1 light
notes: also called CEA specific SPLIT antibody (DOTA-VH-AST); P6_B
- EC50 [2]: 2.3 µg/mL
